In patent US20230416329A1 (INSTITUTE OF MATERIA MEDICA CHINESE ACADEMY OF MEDICAL …, published 2023):
Bridge positions count the residues as written; N and C are the ends. Ends that are not written are not given here.

B1: EC12 (peptide)
peptide: LCTASIPPICQ
modifications: disulfide 2-10 (inferred)
B2: EC1 (peptide)
peptide: LCTASIPPQCY
modifications: disulfide 2-10 (inferred)
B3: EC18 (peptide)
peptide: LCTASIPPQCQ
modifications: disulfide 2-10 (inferred)
B4: EC22 (peptide)
peptide: VCTASIPPICQ
modifications: disulfide 2-10 (inferred)
B5: EC23 (peptide)
peptide: ICTASIPPICQ
modifications: disulfide 2-10 (inferred)
B6: EC25 (peptide)
peptide: LCTASNPPICQ
modifications: disulfide 2-10 (inferred)
B7: EC29 (peptide)
peptide: YCTASIPPICQ
modifications: disulfide 2-10 (inferred)
B8: EC2 (peptide)
peptide: LCTLSIPPQCY
modifications: disulfide 2-10 (inferred)
B9: EC7 (peptide)
peptide: CGLATLSIPPICQ
modifications: disulfide 1-12 (inferred)
B10: BT9 (peptide)
peptide: CGRATKSIPPICF
modifications: disulfide 1-12 (inferred)
notes: synthetic
B11: BT25 (peptide)
peptide: CGTATKSIPPICF
modifications: disulfide 1-12 (inferred)
notes: synthetic
B12: BT26 (peptide)
peptide: CGRAAKSIPPICF
modifications: disulfide 1-12 (inferred)
notes: synthetic
B13: BT53 (peptide)
peptide: CGRYTKSIPPICF
modifications: disulfide 1-12 (inferred)
notes: synthetic
B14: BT66 (peptide)
peptide: CPRATKSIPPICF
modifications: disulfide 1-12 (inferred)
notes: synthetic
B15: BT67 (peptide)
peptide: CARATKSIPPICF
modifications: disulfide 1-12 (inferred)
notes: synthetic
B16: PCSK9_2EC (peptide)
peptide: TVFTSWEEALDWVGICTASIPPICQ-OH
modifications: disulfide 16-24 (inferred)
notes: Contains an anti-elastase scaffold, with a disulfide bond between its two Cys
B17: PCSK9_5CH (peptide)
peptide: WEEALDWVGFCTYSIPPQCYGTVFTS
modifications: disulfide 11-19 (inferred)
notes: Contains an anti-chymotrypsin scaffold, with a disulfide bond between its two Cys
B18: PCSK9_6CH (peptide)
peptide: WEEYLDYVGFCTYSIPPQCYGTVFTS
modifications: disulfide 11-19 (inferred)
notes: as for B17
B19: PCSK9_5EC (peptide)
peptide: WEEALDWVGICTASIPPICQGTVFTS
modifications: disulfide 11-19 (inferred)
notes: as for B16
B20: PCSK9_6EC (peptide)
peptide: WEEYLDYVGICTASIPPICQGTVFTS
modifications: disulfide 11-19 (inferred)
notes: as for B16
B21: PCSK9_9CH (peptide)
peptide: TVFTSGFCTYSIPPQCYGWEEYLDWV
modifications: disulfide 8-16 (inferred)
notes: as for B17
B22: PCSK9_9EC (peptide)
peptide: TVFTSGICTASIPPICQWEEYLDWV
modifications: disulfide 8-16 (inferred)
notes: as for B16

Target: T1, porcine pancreatic elastase (porcine, UniProt P00772 27-266)
T1 sequence (P00772 27-266 limits assumed): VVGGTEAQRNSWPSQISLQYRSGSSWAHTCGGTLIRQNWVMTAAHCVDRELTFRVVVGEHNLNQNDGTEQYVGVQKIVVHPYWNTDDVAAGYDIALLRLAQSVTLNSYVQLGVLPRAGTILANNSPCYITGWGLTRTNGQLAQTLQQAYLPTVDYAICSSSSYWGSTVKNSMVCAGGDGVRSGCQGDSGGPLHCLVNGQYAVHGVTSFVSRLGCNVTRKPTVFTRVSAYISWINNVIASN
Assay: elastase inhibition in vitro
Method: (§1) The substrates N-succinyl-Ala-Ala-Pro-Phe-p-nitroaniline (AAPFpNA), Nα—Benzoyl-L-arginine-4-nitroaniline hydrochloride (BApNA) and N-succinyl-[…] (AAApNA) are used in competitive binding reaction to determine the inhibitory activities against α-chymotrypsin, bovine trypsin, and porcine pancreatic elastase, respectively. Experiments for α-chymotrypsin and bovine trypsin inhibition were measured in 20 mM CaCl₂, 50 mM Tris-HCl buffer (pH 7.8), and that for porcine elastase inhibition was measured in 50 mM Tris-HCl buffer (pH 8.0). The concentration of the peptide was measured using optical density (OD) at 280 nm. The Michaelis constant (Kₘ) of the enzyme hydrolysis substrate is calculated from the initial rate of substrate hydrolysis at 405 nm. The absorbance value of the substrate was measured at 405 nm after complete hydrolysis. All data were processed using nonlinear regression.
(1) Added a total 190 μL of different concentrations of peptides (ECs) against elastase and reaction buffer (20 mM CaCl₂, 50 mM Tris-HCl buffer (pH 8.0)) into the pre-cold 96 well plate, followed by preheating at 37° C. for 5 min and centrifugated at 500 rpm for 1 min and allowed to stand for 4 minutes. […] Finally, added 2 μL of 100 mM AAApNA, and mixed by centrifugation at 500 rpm for 1 min. The plate was incubated at 37° C. for 60 min, and the absorbance value at 405 nm was measured. Three repetitions were made, and only reaction buffer and substrate were added in the blank control as the minimum absorption value (Min OD_{405 nm}); Only reaction buffer, enzyme and substrate were added in the negative control as the maximum absorption value (Max OD₄₀₅ nm). [0472] (2) In the 200 μL of reaction system, the final concentrations of elastase and AAApNA were 0.5 μM and 1 mM, respectively. [0473] (3) Data statistics

Binder	binding result
B1	binds
B2	binds
B3	binds
B4	binds
B5	binds
B6	binds
B7	binds

Target: T1, porcine pancreatic elastase
Assay: elastase inhibition, AAApNA substrate
Method: as §1
(1) Added a total 190 μL of different concentrations of peptides (ECs) against elastase and reaction buffer (20 mM CaCl₂, 50 mM Tris-HCl buffer (pH 8.0)) into the pre-cold 96 well plate, followed by preheating at 37° C. for 5 min and centrifugated at 500 rpm for 1 min and allowed to stand for 4 minutes. […] Finally, added 2 μL of 100 mM AAApNA, and mixed by centrifugation at 500 rpm for 1 min. The plate was incubated at 37° C. for 60 min, and the absorbance value at 405 nm was measured. […]

Binder	binding result
B8	binds
B9	binds

Target: T2, bovine trypsin (bovine, UniProt P00760 24-246)
T2 sequence (P00760 24-246): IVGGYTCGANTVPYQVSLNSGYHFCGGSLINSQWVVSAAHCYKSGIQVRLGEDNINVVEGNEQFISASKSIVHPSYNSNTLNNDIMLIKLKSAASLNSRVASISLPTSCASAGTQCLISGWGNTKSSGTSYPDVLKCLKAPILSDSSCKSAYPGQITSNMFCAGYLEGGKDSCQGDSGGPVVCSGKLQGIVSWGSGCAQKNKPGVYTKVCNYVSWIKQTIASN
Assay: trypsin (50 nM) BApNA hydrolysis, OD405; peptide at 0.98 µM
Method: as §1
(§2) (1) Added a total 190 μL of reaction buffer (20 mM CaCl₂ and 50 mM Tris-HCl, pH 7.8) along with different concentrations of anti-trypsin peptides (BTs) into the pre-cooled 96-well plate, followed by preheating at 37° C., and spined down at 500 rpm for 5 min. Next added 10 μL of 1 μM trypsin, incubated at 37° C., and then spined down at 500 rpm for 10 min. Finally, added 5 μL of 50 mM BApNA, and mixed by centrifugation at 500 rpm for 1 min. […] The experiment was performed in triplicate. The blank control only contained the reaction buffer and the substrate as the minimum absorption value (Min OD_{405 nm}). The negative control only contained the reaction buffer, the enzyme and the substrate as the maximum absorption value (Max OD_{405 nm}). […] (2) In the reaction system of 205 μL, the final concentrations of trypsin and BApNA were 50 nM and 1.22 mM, respectively. [0456] (3) Data statistics

Binder	Residual trypsin activity (%)
B10	-0.4
B11	49.7
B12	94.5
B13	0.5

Target: T2, bovine trypsin
Assay: trypsin (50 nM) BApNA hydrolysis, OD405; peptide at 9.76 µM
Method: as §1, §2

Binder	Residual trypsin activity (%)
B11	1
B12	0.4
B13	0.2

Target: T2, bovine trypsin
Assay: trypsin (50 nM) BApNA hydrolysis, OD405; peptide at 0.98 µM
Remark: another data set of the same source

Binder	Residual trypsin activity (%)
B10	-0.4
B11	49.7
B12	94.5
B14	0.1
B15	0.1

Target: T2, bovine trypsin
Assay: trypsin (50 nM) BApNA hydrolysis, OD405; peptide at 9.76 µM
Remark: another data set of the same source

Binder	Residual trypsin activity (%)
B11	1
B12	0.4
B14	0.1
B15	0.1

Target: T2, bovine trypsin
Assay: trypsin (50 nM) BApNA hydrolysis, OD405; peptide at 0.098 µM
Method: as §1, §2

Binder	Residual trypsin activity (%)
B11	100
B12	100
B13	63

Target: T2, bovine trypsin
Assay: trypsin (50 nM) BApNA hydrolysis, OD405; peptide at 97.56 µM
Method: as §1, §2

Binder	Residual trypsin activity (%)
B11	0.2
B12	0.1
B13	0

Target: T2, bovine trypsin
Assay: trypsin (50 nM) BApNA hydrolysis, OD405; peptide at 0.098 µM
Remark: another data set of the same source

Binder	Residual trypsin activity (%)
B11	100
B12	100
B14	4.8
B15	1.5

Target: T2, bovine trypsin
Assay: trypsin (50 nM) BApNA hydrolysis, OD405; peptide at 0.0098 µM
Method: as §1, §2

Binder	Residual trypsin activity (%)
B10	94.3
B11	99.6
B12	99.5
B13	106

Target: T2, bovine trypsin
Assay: trypsin (50 nM) BApNA hydrolysis, OD405; peptide at 0.0488 µM
Method: as §1, §2

Binder	Residual trypsin activity (%)
B10	68.1
B13	87.4

Target: T2, bovine trypsin
Assay: trypsin (50 nM) BApNA hydrolysis, OD405; peptide at 0.0098 µM
Remark: another data set of the same source

Binder	Residual trypsin activity (%)
B10	94.3
B11	99.6
B12	99.5
B14	106
B15	102

Target: T2, bovine trypsin
Assay: trypsin (50 nM) BApNA hydrolysis, OD405; peptide at 0.0488 µM
Remark: another data set of the same source

Binder	Residual trypsin activity (%)
B10	68.1
B14	66.8
B15	49.6

Target: T2, bovine trypsin
Assay: trypsin (50 nM) BApNA hydrolysis, OD405; peptide at 0.00098 µM

Binder	Residual trypsin activity (%)
B10	100
B11	101
B13	109

Target: T2, bovine trypsin
Assay: as above
Remark: another data set of the same source

Binder	Residual trypsin activity (%)
B10	100
B11	101
B14	105
B15	104

Target: T2, bovine trypsin
Assay: trypsin (50 nM) BApNA hydrolysis, OD405; peptide at 0.000098 µM
Method: as §1, §2

Binder	Residual trypsin activity (%)
B13	104

Target: T3, PCSK9 protein (UniProt Q8NBP7 31-692, limits assumed)
T3 construct: Kit reagent; also called proprotein convertase subtilisin/kexin type 9
Assay: PCSK9-LDLR in vitro binding assay kit, OD450/540; peptide 10 µM; inhibition of PCSK9 binding to LDLR
Method: (§3) Solvent control: replace polypeptide with 5 μL solvent.
(§4) ^aThe concentration of samples in the table was 50 μM.

Binder	Inhibitory rate (%)
B16	73.1
B17	99.4
B18	75.3
B19	85.2
B20	96.7
B21	98.4
B22	94.3

Target: T3, PCSK9 protein
Assay: PCSK9-LDLR in vitro binding assay kit, OD450/540; peptide 100 µM; inhibition of PCSK9 binding to LDLR
Method: as §3, §4

Binder	Inhibitory rate (%)
B16	100
B18	93.7
B19	95.3
B20	99.4
B21	102
B22	101
